Assay results from a protein production outcome set (Wang et al. 2014).

Test: label from the status in PepcDB records

| Sequence | protein production |
| --- | --- |
| MIAAPFLGLLLGLAALLLLASPWPFLAPLVVVGLFGLALLYRRPGWGLLGICALVPFEGLFKDSAFSGAKLLGASLILIMLFKLLLRQIPDSRLRSNLWRALGPFLLCLLLSMLYSENLLVSLDSLRELAVGLVLFFVTLLIAREVNLLMLCRLLAVSVAITCVIALVSAKYQVGGRAIGLLQDANYFALLIAMAVPPAIFLALRSPHWPVRLFWVGISLTLMAGMTKTDSRSGLLVVLFTIAIGVWHYRDRLKGLRPKHLGFAMFAVAIVIPLGIAVLPAEYVARIQSLSMLKSGAHSADTSLGRRTSYLVVGGQMIRQNPLLGSGLGTFPIHYAQTGFASSFSENMNEPDLFRRAHNTYLELFSELGIPGGLSFVALMLMGLRNFERARQGFLARGQREQADIATHLGLSLLAMAVFLLFLSAPNHKYLWIFLALSSVLRLQAEDAPVPRPAPA | failed |
| MIALPAWLTDERLSEDIEPLLRQTDNESLERLAAEAQAVTLRRFGRVISLYTPLYLSNFCSSGCVYCGFASDRRSPRRKLDTDEIEKELLAMKALGVSDVLLLTGERTNSVGFDYLRRAVDIAARHMPRVAVEAFPMSVAEYRGLAECGCTGLTIYQETYDPDHYRELHRWGPKQDFLERLETPERAITGGIRSVGIGALLGLSEPVGEALAVLRHARYLCKTYWKAGVTVSFPRIRPQEGGFQPSFTVSDRFLARMIFAFRIGMPDVDLVLSTRESSNFRDGMAGLGITRMSIASRTTVGGYVEKETAGASQFEVSDNRSVEAFCAALRAKDLEPVFKNWDAAYNNPLPAEECT | failed |
| MIAMVNDGGLALDRPTAAAIVGLFAGSMYLMTVFGGWVADNWLGQARAIWYGSIIIALGHLSIALTSVFDQSFFYLGLVLIVLGTGLFKTCISVIVGTLYKANDARRDAGFSIFYMGINMGSFIAPLITGLLAKDHGWHLGFGIGGIGMLIALLIFRFMAMPQLQTFNELRQEANSCSKPVVENKNAPKIVFSFLFAVAVVIALTFLGIIHINPVAVATYLTVGISIGIIAYFAYLLLFLNLEQHEKFKIIICFVLLAASALFWSAFEQKPTTFTLFAQDYTDRIVFGFEIPTVWFESINALFIIIFAPVAAWLWAKLGKANKDPSYISKFIIALLFAAGGFLLMSLASHFAIHGGVVSPFWLVGTLFLLTIGELCLSPIGLSTMTKLAPDVIRSQIMGLWFTGTALGNLMAGLIGGQVSADGINHLPSLFMRCVLALVIGAIVLFLLKKPMNKLMDKSTNKVQPDLETI | failed |
| MIANNIIPIIFLLIIVYGMFKGRKVYEWFLEGAKEGLMVCVKIFPALLAMMIAIRIFKDANLLNYLNNLLEPIVSLIGLPKDIVPLVLIKPLSGSGALGVYTELINTLGPDTREGLISSVIMGGTETIFYTITVYFGAVGIKKIRHTFWAALMADITAIIMAVLVVSMFFGL | failed |
| MIARPMVPTADQLATDDLSLSDRSRFWLAALEASGQGVAIADATHPDLILTYVNSAFKKLTGYNAAEALGKSCRFLQGSDRAQPGITTLRQAIRNGQACEVVLRNYRKDGSLFWNQLTIAPITDGQGKVSHYVALQRDITAFKEQEQALQRQGIYDEHSGLPKRQLFLDRLNQALAWSQFSGVPGALLLIDLGLPAHLDGSPSLSPDAEENLEIIANRLQAYVRPHETLAHLNHHQFGLLLLDPDVQLRAEERAHGIQTLIRDRLAGFEGGAHIGIVPLTPETPATVLLQAAEAAAMTARSQQQGHLSLEASAIVAAPEQYSRDRDWQQAIAAGELTLALQPQMGLRNRQLRGFEVQLRWQHPQQGTLLASQLMEHLEQSQHRETVGRWFLDQAGQLLSQWRNSAQFSGLFALSLLPQQWKSPSFIHDLRSLLETYQIPPEQLELDLPAQSLAESAAESWDWVYAVRDLGIGIGLADFGSRSIGLYDLRNLPLTTLKLERRFVRGLPDDANDRAIVRGVVAMSQALKVRIVARGVDTVDQAKFLARAECDAMQGLAYSAPLTIEEALQVARSPQAPAW | failed |
| MICCLGPRGSYSEKAAVTFSKAINDSEIQFEDSIYNVFKAVETNPEFFGVVPSENSIGGSVSITQDLLLEFPVKILGEVDISINHCLLGYDIKKVTEVLAHPQALAQCGHYITKNNWNITPVDSNAKAAKIVSEEKDEKLAAICGVENAEIYGLNVLDEYIQDFKNNTTRFFLICNKNK | failed |
| MICCLNPDCLNPLNPDGKKSCQSCGTTLVPLLRNRFRVVRVLSDEGGFGRTYLSEDKDKLNEPCVIKQLAPKFQGTWSQKKAVELFAEEAKRLQELGEHPQIPTLMAYFEQDNCLYLVQQFINGQNLLKELQQRKNYRPGEIQAILLDLLPVLKFIHDRGVIHRDIKPENIIRCRTDGRLNLIDFGSSKQLTAKVQNFGTSIGSHGYSPLEQIRDGKAYAASDLFALGATCFHLITSVSPFQLWMEHGYSWVSNWRQYLHSPLTPELDFVLDKLLQKDLKHRYTSADEVIKDITPKQPLALPAAGQTSGKIPVPQTTYLSKLPKKYSLLRSVVLLSALVLLFGFSESWFSQYLQIYSSLSARLTQNKSGQVVLAQPQKTTLRTISLANTLPDDENAFVSLAISPNGQIIASCGSDRTIKIWQLATGEDISSLKGHSRKVNAVVFSPDGKTLVSGGDDNTIKIWNLKTGKVIRTITGHSDAVHTLAISPNGKTLVSGSDDNTVKVWNLNTGRLINTLTGHTFWVRSVAISPDGVNIASGSFDKTVKIWNLETGTLTHTLAGNGETVTSIAFNPDGNTLASASRDRTIKIWKVGAGTRVRTLKGSTETITSIAFSPDGNTLASASRDQTIKLWNLETGKEIRTLEGHENTVTTVAFTPDGANLVSGSGDNTMRIWRIGN | failed |
| MICKKLIQTILLGFAMCFYLLLGAGLNPTLAATLTQVESISQPRMQTLSEPRNLESGVDSFLTSIPAGYYTIATVEELKSLLKKSQPMLVDVREASEYRAGHIPNAINIPLRTLSQNLNQIPRTRPVVLYCSSGYRSAMGVMTLHLLGYENVQGFPPSFAGWKNAKEAMTYGRSKTIAS | failed |
| MICVYTEDRWADILAAVASVRAQSRPARETLLVVDHHQTLLERLSREYKEVPEVRVLANAGPRGLSAGRNTGIAASHGEIIAFLDDDAVAERDWLRHFAEGYEDPRVMAVGGRTMPIWASGRRPAWFPEEFDWVVGCTYKGLPPGRVRVRNVLGGNASFRRTAFDAAGGFATGIGRDGDKRPLGCEETELCIRLTRARPDAILLIDDRAVIHHRVPEPREHFAYFRTRTYAEGLSKALVARSVGAGKGLESERRYTTRVLPAGVARGLRDAALARPGGAGRAGAIVAGVLTAAGGYVLGSVRARRGGATFSVVEPPDSEGEAA | failed |
| MIDDLLNFFNSFNVVKNYKLINQLKNEVDTLKSRLDIPRELLDGFYADRNSREYREVYEKDAPLVTVCIGTYNRGKLLVERSVRSVLEQSYGNIELIVVGDCCTDDTPRLVQGITDPRFRFINLPERGNYPENPLHRWCVAGTVPFNYALSQARGDFITHLDDDDEFVPDRIEKLVKFIQREKADLVWHPFWYERSNGRWAMRKAQEFSGGKVTTSSIFYHRWFTAVPWDIEAYRYQEPGDWNRLRKIKYLGARVARYPEPLLRHYCERNQESLSSRTIQTRNTKLEHHHHHH | failed |
| MIDFTKSKQYTLSIRLSTDGFSFSIYNPINDNSQSLFEKEVDTSLSLTANLKNVFHESDFLSYSYKRVNIMIASKRFTMIPLELFEEEQAELLFYHNHQKRENEIVMYNILKKNNVVIIFGIDKSTYTFLNEQYPEARFYSQSTPLIEYFSIKSRLGNSKKMYASVRKDAIDIYCFERGQLLLANSFECMQTEDRIYYLLYVWKQLEFNQERDELHLTGTLSDKETLMNELKKFILQVFIMNPANNIDMQALLTCE | not failed |
| MIDILNLALPYFGLIFVGFACGRWKKLPEQGLVWMNFFLVFVSLPALFFRIMSKTPFEELNNLPFVLATTLATAIAFFLSGMLGRLIGKLSMREATMAALSGGYGNIGYMGPGLALAVLGTQAAAPTALIFCFDTIFLFSIVPLGMALTAADKRPLIPTIIAVLREILFHPLIVAAYCGAAAAAFHVELPVAVDKMLAFLQNAAAPVALFTLGVTVALRPFGRVPWEIPSLVAVKLLLHPVIVFCLVLAFGPFSPEWAATAVLMASLPPALNVFVIARQYNTWVEPASVAVLIGTFMSVVTLTTVMWLIRTGQIPFPA | failed |
| MIDILPLLDWHHFVYFAIPAVLLLIVSALFALYQRRVWAICIAIAAACVLMFFIGGMWHSLERPPLRTMGETRLWYSFFVIIAGLIIYIRWKYRWILSFATVLSTVFMIINIAKPDIHNKTLMPALESPFFVPHVISYIFAYAMLGAALLVGGYFLFCKRKHKEVNAKVMMHTTDNLVYTGFAFLMTGLLLGAIWAKLAWGTYWNWDPKETWAAITVFSYLLYIHHRLHRPRAFAHSLVLLIVSFLFLQICWYGVNYLPSAKDSSIHTYTR | failed |
